Data as given in patent publication US20030175681A1.

Molecular target: rhCMV (strain 68.1) US28 homolog(s): fractalkine-binding receptor protein expressed on rhCMV-infected rhesus dermal fibroblasts and on rhCMV virions
Assay: homologous competition: unlabeled fractalkine displaces 125I-fractalkine from rhCMV-infected rhesus dermal fibroblasts, filter binding

Sequence of fractalkine (P78423 25-100 limits assumed): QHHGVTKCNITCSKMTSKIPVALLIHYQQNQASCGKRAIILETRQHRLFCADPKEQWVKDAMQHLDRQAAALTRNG

fractalkine (from UniProt P78423 25-100) (ligand)
IC50: 0.044 nM
